This note sets out measurements from IntAct's records for PubMed 28348268.

Sequences and labels used below:
B1: HLA class I histocompatibility antigen, alpha chain G (Homo sapiens), P17693-2 (parent)
chain: MVVMAPRTLFLLLSGALTLTETWAGSHSMRYFSAAVSRPGRGEPRFIAMGYVDDTQFVRFDSDSACPRMEPRAPWVEQEGPEYWEEETRNTKAHAQTDRMNLQTLRGYYNQSEANPPKTHVTHHPVFDYEATLRCWALGFYPAEIILTWQRDGEDQTQDVELVETRPAGDGTFQKWAAVVVPSGEEQRYTCHVQHEGLPEPLMLRWKQSSLPTIPIMGIVAGLVVLAAVVTGAAVAAVLWRKKSSD

In this experiment the parent is B1. The conditions noted are these: with lirb2_human LILRB2, Q8N423.
lirb2_human LILRB2, Q8N423, sequence (Q8N423 whole entry): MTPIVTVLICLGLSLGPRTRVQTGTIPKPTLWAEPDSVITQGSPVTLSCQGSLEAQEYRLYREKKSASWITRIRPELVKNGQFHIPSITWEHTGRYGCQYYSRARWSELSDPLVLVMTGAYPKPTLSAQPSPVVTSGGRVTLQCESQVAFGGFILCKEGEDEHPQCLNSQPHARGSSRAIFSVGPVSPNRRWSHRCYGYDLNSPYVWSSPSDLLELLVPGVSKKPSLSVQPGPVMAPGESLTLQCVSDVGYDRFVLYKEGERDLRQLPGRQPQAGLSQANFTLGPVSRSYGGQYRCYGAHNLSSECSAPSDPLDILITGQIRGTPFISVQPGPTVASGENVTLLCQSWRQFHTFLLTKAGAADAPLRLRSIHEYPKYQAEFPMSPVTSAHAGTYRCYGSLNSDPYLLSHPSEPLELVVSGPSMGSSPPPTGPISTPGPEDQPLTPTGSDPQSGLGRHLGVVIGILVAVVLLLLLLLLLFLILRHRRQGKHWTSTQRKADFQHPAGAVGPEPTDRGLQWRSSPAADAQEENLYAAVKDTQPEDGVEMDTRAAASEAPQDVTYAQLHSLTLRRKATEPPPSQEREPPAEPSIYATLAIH
As to MVVMAPRTLFLLLSGALTLTETWAGSHSMRYFSAAVSRPGRGEPRFIAMGYVDDTQFVRFDSDSASPRMEPRAPWVEQEGPEYWEEETRNTKAHAQTDRMNLQTLRGYYNQSEANPPKTHVTHHPVFDYEATLRCWALGFYPAEIILTWQRDGEDQTQDVELVETRPAGDGTFQKWAAVVVPSGEEQRYTCHVQHEGLPEPLMLRWKQSSLPTIPIMGIVAGLVVLAAVVTGAAVAAVLWRKKSSD [C66S], the “effect of a mutation on the interaction” value was “with no effect”.
